In patent US20240294650A1 (Alector, published 2024):

T1: Full Axl (ECD domain of human Axl) (human, UniProt P30530 26-451)
T1 construct: also called human Axl ECD
T1 sequence: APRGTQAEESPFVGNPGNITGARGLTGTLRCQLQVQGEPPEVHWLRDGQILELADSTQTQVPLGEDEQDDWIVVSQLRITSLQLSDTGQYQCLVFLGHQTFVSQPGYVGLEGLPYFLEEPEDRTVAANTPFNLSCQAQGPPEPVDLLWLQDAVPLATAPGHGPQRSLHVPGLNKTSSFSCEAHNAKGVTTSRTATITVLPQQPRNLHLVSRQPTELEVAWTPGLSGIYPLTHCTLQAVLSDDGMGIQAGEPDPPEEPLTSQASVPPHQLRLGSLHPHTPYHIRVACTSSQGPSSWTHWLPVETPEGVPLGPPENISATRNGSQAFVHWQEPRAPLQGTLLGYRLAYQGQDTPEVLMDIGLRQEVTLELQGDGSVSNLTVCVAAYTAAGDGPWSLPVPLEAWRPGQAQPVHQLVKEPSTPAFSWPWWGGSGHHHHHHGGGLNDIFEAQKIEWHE

T2: human MerTK (human, UniProt Q12866 21-999)
T2 sequence: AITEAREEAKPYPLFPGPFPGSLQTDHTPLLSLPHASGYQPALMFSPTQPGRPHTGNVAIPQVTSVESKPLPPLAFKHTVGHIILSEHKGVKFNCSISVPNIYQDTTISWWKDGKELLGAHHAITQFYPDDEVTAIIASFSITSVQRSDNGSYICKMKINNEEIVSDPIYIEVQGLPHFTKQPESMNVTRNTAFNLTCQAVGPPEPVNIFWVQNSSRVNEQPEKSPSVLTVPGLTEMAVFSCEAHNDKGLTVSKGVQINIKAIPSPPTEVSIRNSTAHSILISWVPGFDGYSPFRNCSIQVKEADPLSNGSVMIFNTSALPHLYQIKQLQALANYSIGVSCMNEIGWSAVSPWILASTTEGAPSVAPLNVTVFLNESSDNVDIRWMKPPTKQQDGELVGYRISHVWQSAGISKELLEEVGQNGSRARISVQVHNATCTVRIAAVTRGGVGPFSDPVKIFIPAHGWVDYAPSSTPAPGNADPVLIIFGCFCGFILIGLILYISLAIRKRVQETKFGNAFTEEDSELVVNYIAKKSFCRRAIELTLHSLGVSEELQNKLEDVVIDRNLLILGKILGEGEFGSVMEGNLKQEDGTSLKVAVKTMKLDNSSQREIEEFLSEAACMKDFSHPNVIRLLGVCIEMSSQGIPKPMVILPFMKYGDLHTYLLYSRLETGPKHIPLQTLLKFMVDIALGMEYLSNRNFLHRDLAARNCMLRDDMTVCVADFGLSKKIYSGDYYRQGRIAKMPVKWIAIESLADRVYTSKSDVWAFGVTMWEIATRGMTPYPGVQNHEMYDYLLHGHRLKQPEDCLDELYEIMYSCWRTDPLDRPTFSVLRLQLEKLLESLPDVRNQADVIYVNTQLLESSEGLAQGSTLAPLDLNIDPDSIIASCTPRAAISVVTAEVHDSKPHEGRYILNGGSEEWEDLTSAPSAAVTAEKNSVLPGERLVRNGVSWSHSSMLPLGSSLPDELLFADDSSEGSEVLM

T3: Recombinant human MerTK-human Fc Chimera protein (human, UniProt Q12866 26-499, limits assumed)
T3 construct: bought construct; also called MerTK-Fc (R&D systems, Cat #391-MR-100)
T3 sequence: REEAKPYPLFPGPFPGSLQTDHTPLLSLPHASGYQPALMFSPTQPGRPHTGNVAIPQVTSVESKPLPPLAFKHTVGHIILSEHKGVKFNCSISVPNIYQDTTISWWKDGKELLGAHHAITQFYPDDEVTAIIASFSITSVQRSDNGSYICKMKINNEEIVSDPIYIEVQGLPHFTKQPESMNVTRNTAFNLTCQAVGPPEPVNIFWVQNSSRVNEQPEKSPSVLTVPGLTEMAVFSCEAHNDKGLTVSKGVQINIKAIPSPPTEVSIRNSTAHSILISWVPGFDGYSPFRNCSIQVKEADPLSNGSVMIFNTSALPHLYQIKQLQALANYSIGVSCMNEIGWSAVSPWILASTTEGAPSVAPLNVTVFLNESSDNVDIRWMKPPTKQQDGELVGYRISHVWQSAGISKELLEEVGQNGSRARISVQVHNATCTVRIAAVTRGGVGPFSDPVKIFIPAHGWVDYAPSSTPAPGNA


Legend:
[1] = target: T1, Full Axl (ECD domain of human Axl); experiment: SPR (data not shown)
Description: Binding of anti-MerTK antibodies of the present disclosure to these domain-swapped chimera or deletion mutants was tested by Surface Plasmon Resonance (SPR) using Carterra LSA. Purified anti-MerTK antibodies were immobilized in duplicate on a HC30M chip (Carterra) by amine coupling, following the manufacturer's instructions (described previously).
Supernatants containing the constructs were diluted 1:1 with running buffer containing 0.5 mg/mL BSA (HBS-TE, Carterra; BSA, Sigma) and injected over the immobilized antibodies. The surface was regenerated with 10 mM Glycine pH2.0 after each construct injection. Sensorgrams were analyzed using Carterra Epitope software to identify patterns of construct binding. Loss of binding to MerTK constructs with domains deleted or swapped in from Axl and/or gain of binding to Axl constructs with MerTK domains swapped in were evaluated. Data from these studies were used to construct a domain binding map for anti-MerTK antibodies and their binding to various domains of human MerTK.

human MerTK = target: T2, human MerTK; experiment: cell-based or functional assay
[2] = target: T3, Recombinant human MerTK-human Fc …; experiment: blocking ELISA, Gas6-His on MerTK-Fc, Ab 66.6 nM, isotype=100%
Description: Briefly, rabbit anti-human IgG antibody (Jackson ImmunoResearch, Cat #309-005-008) was coated at 2 μg/ml onto high-protein binding plates at 4° C. overnight. After washing with 0.05% Tween20 in PBS three times, 5% BSA in PBS was added for 1 hour. Recombinant human MerTK-human Fe Chimera protein (R&D systems, Cat #391-MR-100) was added at 2 μg/ml for 1 hour and plates were washed before the addition of 40 μl of anti-MerTK hybridoma supernatants and 40 μl of His tag-conjugated recombinant Gas6 (R&D systems, Cat #885-GSB-050) at 3 μg/ml or His tag-conjugated recombinant ProS (R&D systems, Cat #9489-PS-100) at 20 μg/ml. After a further incubation for 1 hour, plates were washed and incubated for 1 hour with HRP-conjugated anti-6×His tagged antibody (Abcam, Cambridge, MA, Cat #ab1187). Plates were then washed and an HRP substrate, TMB, was added to develop the plates. The reaction was stopped by adding 50 μl 2N H₂SO₄ and the OD was measured using a spectrophotometer (BioTek).
Anti-MerTK antibodies were titrated to a final concentration from 66.6 nM to 4 pM and tested against anti-human MerTK antibody M6 (disclosed in WO2016/106221) or isotype control antibody.

binding result [1] | Fold increase in PAKT over IgG control (human MerTK) [fold] | Percent Gas6 ligand binding [2] [%] | EC50 (nM), pAKT in SK-MEL-5 cells (human MerTK) [nM] | Binder
no binding | – | – | – | MTK-230 (antibody, human IgG1, V domains shown) VH: EVQLQQSGPELVKPGASVRIPCKASGYTFSDYNMDWVKQSHGKSLEWIGNINPNIGGTIYSQKFKGKATLTVDKSSSTAYMELRSLTSEDTAVYYCARGDYGFASWGQGTLVTVSA VL: DIVLTQSPASLTVSLGQRATISCRASRSVSTSGYSYMHWYQQKPGQPPKLLIYLASNLESGVPARFSGSRSGTDFTLNIHPVEEEDAATYYCQHSREYPFTFGSGTKLEIK
no binding | – | – | – | MTK-203 (antibody, human IgG1, V domains shown) VH: QVQLQQPGAELVKPGASVKVSCKASGYTFTNYWMHWVKQRPGQGLEWIGRIHPFDTETNDNQKFKGKATLTVDKSSSTAYMQLSSLTSEDSAVYYCVIPANGGFAYWGQGTLVTVSA VL: ETTVTQSPASLSVATGEKVTIRCITSTDIGDDMNWYQQKPGEPPKVLISEGNSLRPGVPSRFSSSGYGTDFVFTIENTLSEDVADYFCLQSDNLPLTFGSGTKLEIK
no binding | – | – | – | MTK-224 (antibody, human IgG1, V domains shown) VH: QVQLQQPGAELVKPGASVKVSCKASGYTFTSYWMHWVKQRPGQGLEWIGRIHPFDSDTNYNQKFKGKATLTVDKSSSTAYMQLSSLTSEDSAVYYCSIAGFAYWGQGTLVTVSA VL: DIVMTQSPATLSVTPGDRVSLSCRASQIISDYLNWYQQKSHESPRLLIKYASQSISGIPSRFSGSGSGSDFTLSINSVEPEDVGVYYCQNGHSFPLTFGAGTKLELK
no binding | – | – | – | MTK-209 (antibody, human IgG1, V domains shown) VH: QVQLQQPGAELVKPGASVKVSCKASGYTFTNYWIHWVKQRPGQGLEWIGRIHPFDSEPNYNQKFKGKATLTVDKSSSTAYMHLTSLTSEDSAVYYCALASFAYWGQGTLVTVSA VL: ETTVTQSPASLSMAMGEKATIRCITSTDIDDKMNWYQQKPGKPPKLLISAGNTLRPGVPSRFSSSGYGTDFVLTVENMLSEDVADYYCLQGGALPLTFGSGTKLEIK
no binding | – | – | – | MTK-214 (antibody, human IgG1, V domains shown) VH: QVQLQQPGAELVKPGASVKVSCKASGYTFTNYWMHWMKQRPGQGLEWIGRIHPFDSDTNYNEKFTDKATLTVDKSSSTAYMQLSSLTSEDSAVYYCAIGTLIYWGQGTTLTASS VL: DILLTQSPATLSVTPGETVSLSCRASQSIYKKLHWFQQRSHRSPRLLIKFASDSISGIPSRFTGSGSGTDYTLSINSVKPEDEAIYYCLQGYSTPLTFGAGTKLELK

More lines, now with the values behind:

Binder | binding result [1] | Fold increase in PAKT over IgG control (human MerTK) [fold] | Percent Gas6 ligand binding [2] [%] | EC50 (nM), pAKT in SK-MEL-5 cells (human MerTK) [nM]
MTK-211 (antibody, human IgG1, V domains shown) VH: QVQLQQSGAELMKPGASVKLSCKATGYTFTGYWIEWVKQRPGHGLEWIGEILPGSGGSNYNEKFKGKATFTADTSSNTAYIQLSSLTTEDSAIYCCARGEPSYFSDAGFAYWGQGTLVTVSA VL: QIVLTQSPAVMSASPGEKVTMTCSASSSITYMHWYQQKPGTSPKRWIYDTSKLASGVPARFSGSGSGTSYFLTISSMEAEDVATYYCHQRSTYPYTFGGGTKLEIM | – | 4 | 115 | –
MTK-215 (antibody, human IgG1, V domains shown) VH: EVQLVESGGGLVKPGGSLKLSCAASGFIFSDYGMHWVRQAPEKGLEWVAYISSGSSTIYYGDTVKGRFTISRDNAKNTLFLQMTSLRSEDTAMYYCAKGGRYGAMDYWGHGTSVTVSS VL: DIVLTQSPATLSVTPGDSVSLSCRASQSISNNLHWYQQKSHESPRLLIKNPSQSISGIPSRFGARGSGTDFTLIINSVETEDLGVYFCQQSNSWPFTFGSGTKLEIK | – | 2.6 | 110 | 208
MTK-201 (antibody, human IgG1, V domains shown) VH: QVQLRQSGPGLVQPSQSLSITCTVSGFSLSNYGLHWVRQSPGKGLEWLGVIWSGGITDYNAAFISRLSIIKDNSRSQVFFKMNSLQADDTAIYYCARKGHDPYAMDFWGQGTSVTVSS VL: QIVLTQSPPIMSAFLGERVTMTCTASSSVSSSYLHWYRQMPGSSPKLWIYDTSNLASGVPARFSGSGSGTSYSLTISSMEAEDAATYYCHQYHHSPYTFGGGTKLEIK | – | 4.3 | 112 | 0.65
MTK-208 (antibody, human IgG1, V domains shown) VH: QVQLQQPGAELVVPGASVRLSCKASGYTFINYWMHWVKQRPGQGLEWIGEIDPSDSYANYNQKFKDKSTLSLDKSSSTAYMQLSSLTSEDSAVYYCARCDYYGRLDYWGQGTTLTVSS VL: QVVLTQSPAIMSASPGEKVTITCSASSSVSYMLWFQQKPGTSPKLWIYSTSNLASGVPARFSGSGSGTSYSLTISRLEAEDAATYYCQQRSSYPPITFGAGTKLELK | – | 2.6 | 107 | –
MTK-216 (antibody, human IgG1, V domains shown) VH: EVQLVESGGGLVKPGGSLKLSCAASGFTFSDYGMHWVRQAPEKGLEWVAFISSGSTTIYYADTVKGRFTISRDNAKNTLILQMTSLRSEDTAIYYCTRGGFHLDYWGQGTTLTVSS VL: SIMMTQSPSSLAVSAGEKVTMGCKSSQSVLYSANQQNYLAWYQQKPGQSLKLLIYWASTRESGVPDRFTGSGSGTDFTLTISSVQAEDLAVYYCHQYFSSWTFGGGTKLEIK | – | 3.2 | 104 | –
